Results on one molecule are retold here after patent US20250262210A1 (TRUSTEES OF COLUMBIA UNIVERSITY IN THE CITY OF NEW YORK, published 2025).

Assay [1] concerns the target T1, MOCOS (human, UniProt Q96EN8 1-888).
T1 sequence (looked up): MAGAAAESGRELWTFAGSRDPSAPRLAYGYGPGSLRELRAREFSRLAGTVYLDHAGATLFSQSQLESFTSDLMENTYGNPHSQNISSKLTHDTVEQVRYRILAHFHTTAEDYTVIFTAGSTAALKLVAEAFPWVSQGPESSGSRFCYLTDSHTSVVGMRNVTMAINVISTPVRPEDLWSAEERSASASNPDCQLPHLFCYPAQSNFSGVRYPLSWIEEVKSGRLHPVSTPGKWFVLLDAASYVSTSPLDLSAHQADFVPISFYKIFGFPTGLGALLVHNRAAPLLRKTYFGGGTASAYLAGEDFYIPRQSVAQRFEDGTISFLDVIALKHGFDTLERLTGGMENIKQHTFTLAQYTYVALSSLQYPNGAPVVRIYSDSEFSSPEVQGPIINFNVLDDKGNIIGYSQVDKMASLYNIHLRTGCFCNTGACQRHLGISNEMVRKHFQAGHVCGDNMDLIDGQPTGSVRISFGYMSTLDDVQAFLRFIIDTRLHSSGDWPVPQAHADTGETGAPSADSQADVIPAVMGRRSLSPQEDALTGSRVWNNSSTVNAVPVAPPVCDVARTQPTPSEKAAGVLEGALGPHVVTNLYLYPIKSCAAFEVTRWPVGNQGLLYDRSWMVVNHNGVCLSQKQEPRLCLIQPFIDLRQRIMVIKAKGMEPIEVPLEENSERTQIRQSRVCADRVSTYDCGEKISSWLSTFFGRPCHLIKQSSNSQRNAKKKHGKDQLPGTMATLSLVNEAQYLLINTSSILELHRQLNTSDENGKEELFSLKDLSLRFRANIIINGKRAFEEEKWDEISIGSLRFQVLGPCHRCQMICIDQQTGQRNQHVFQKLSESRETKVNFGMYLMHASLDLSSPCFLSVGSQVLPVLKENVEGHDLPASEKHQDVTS
Put plainly: IP/MS, LZTR1 R810W-FLAG, U87. In a few lines: (§1)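 Gel slices were reduced with 5 mM DTT, alkylated with 11 mM IAA and digested overnight at 37° C. with trypsin. Peptides were analysed on an Orbitrap Fusion Tribrid by LC-MS/MS.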

Assay [2] has as its target T2, RALGAPB (human, UniProt Q86X10 1-1494, limits assumed).
T2 sequence (looked up): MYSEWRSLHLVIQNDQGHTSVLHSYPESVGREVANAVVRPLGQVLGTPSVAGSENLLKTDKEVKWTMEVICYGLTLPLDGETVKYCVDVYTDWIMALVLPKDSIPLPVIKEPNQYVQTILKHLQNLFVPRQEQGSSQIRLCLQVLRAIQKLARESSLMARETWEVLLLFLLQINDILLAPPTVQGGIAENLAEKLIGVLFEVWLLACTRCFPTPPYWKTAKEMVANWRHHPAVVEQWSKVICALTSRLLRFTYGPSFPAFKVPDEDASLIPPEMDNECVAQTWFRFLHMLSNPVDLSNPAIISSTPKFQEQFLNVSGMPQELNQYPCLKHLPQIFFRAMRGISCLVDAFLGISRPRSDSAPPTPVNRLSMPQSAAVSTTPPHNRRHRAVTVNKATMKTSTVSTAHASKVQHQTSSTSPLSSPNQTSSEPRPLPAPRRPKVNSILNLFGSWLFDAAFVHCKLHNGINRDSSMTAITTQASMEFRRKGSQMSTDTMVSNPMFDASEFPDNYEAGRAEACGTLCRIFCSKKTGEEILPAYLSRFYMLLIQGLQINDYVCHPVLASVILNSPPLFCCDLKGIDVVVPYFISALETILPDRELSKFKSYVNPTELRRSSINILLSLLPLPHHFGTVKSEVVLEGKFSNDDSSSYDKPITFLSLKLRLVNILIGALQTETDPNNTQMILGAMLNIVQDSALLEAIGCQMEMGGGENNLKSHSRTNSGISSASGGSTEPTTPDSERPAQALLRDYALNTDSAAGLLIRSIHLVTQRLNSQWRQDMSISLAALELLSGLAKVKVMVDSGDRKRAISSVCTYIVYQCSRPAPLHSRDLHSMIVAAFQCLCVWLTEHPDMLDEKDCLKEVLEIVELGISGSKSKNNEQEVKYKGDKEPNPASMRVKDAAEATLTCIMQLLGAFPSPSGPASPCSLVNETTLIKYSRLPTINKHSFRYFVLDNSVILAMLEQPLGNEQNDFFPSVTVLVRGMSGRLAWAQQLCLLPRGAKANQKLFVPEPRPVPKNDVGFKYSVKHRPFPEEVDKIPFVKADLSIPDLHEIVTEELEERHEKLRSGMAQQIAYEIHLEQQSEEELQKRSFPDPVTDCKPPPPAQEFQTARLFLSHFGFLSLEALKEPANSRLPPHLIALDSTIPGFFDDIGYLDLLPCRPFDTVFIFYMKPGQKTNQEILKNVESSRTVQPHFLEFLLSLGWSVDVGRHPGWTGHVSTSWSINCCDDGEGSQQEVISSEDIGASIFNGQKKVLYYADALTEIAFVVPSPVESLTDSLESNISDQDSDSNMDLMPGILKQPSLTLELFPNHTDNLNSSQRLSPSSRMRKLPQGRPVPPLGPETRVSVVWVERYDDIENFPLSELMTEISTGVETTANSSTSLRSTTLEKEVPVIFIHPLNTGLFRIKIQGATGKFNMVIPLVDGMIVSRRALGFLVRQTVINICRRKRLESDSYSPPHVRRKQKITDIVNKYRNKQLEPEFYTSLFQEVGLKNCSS
Description: IP/MS, LZTR1 R810W-FLAG, U87. In a few lines: as §1

B1: LZTR1 R810W-FLAG (other, human, UniProt Q8N653 1-840, looked up)
chain: MAGPGSTGGQIGAAALAGGARSKVAPSVDFDHSCSDSVEYLTLNFGPFETVHRWRRLPPCDEFVGARRSKHTVVAYKDAIYVFGGDNGKTMLNDLLRFDVKDCSWCRAFTTGTPPAPRYHHSAVVYGSSMFVFGGYTGDIYSNSNLKNKNDLFEYKFATGQWTEWKIEGRLPVARSAHGATVYSDKLWIFAGYDGNARLNDMWTIGLQDRELTCWEEVAQSGEIPPSCCNFPVAVCRDKMFVFSGQSGAKITNNLFQFEFKDKTWTRIPTEHLLRGSPPPPQRRYGHTMVAFDRHLYVFGGAADNTLPNELHCYDVDFQTWEVVQPSSDSEVGGAEVPERACASEEVPTLTYEERVGFKKSRDVFGLDFGTTSAKQPTQPASELPSGRLFHAAAVISDAMYIFGGTVDNNIRSGEMYRFQFSCYPKCTLHEDYGRLWESRQFCDVEFVLGEKEECVQGHVAIVTARSRWLRRKITQARERLAQKLEQEAAPVPREAPGVAAGGARPPLLHVAIREAEARPFEVLMQFLYTDKIKYPRKGHVEDVLLIMDVYKLALSFQLCRLEQLCRQYIEASVDLQNVLVVCESAARLQLSQLKEHCLNFVVKESHFNQVIMMKEFERLSSPLIVEIVRRKQQPPPRTPLDQPVDIGTSLIQDMKAYLEGAGAEFCDITLLLDGHPRPAHKAILAARSSYFEAMFRSFMPEDGQVNISIGEMVPSRQAFESMLRYIYYGEVNMPPEDSLYLFAAPYYYGFYNNRLQAYCKQNLEMNVTVQNVLQILEAADKTQALDMKRHCLHIIVHQFTKVSKLPTLWSLSQQLLLDIIDSLASHISDKQCAELGADI
notes: Stably expressed in U87 cells by lentivirus; also called LZTR1-FLAG-R810W; LZTR1 RW; not shown: FLAG tag
As to B1, the binding result in assay [1] and in assay [2] was “binds” in each case.
